Measured values published in patent publication US20160052997A1.
“And” between values parts separate entries of the source, which are not always exact repeats. Equal entries are not always repeated. Where two headings read alike, the source gives them in different places.

B1: CT164 (antibody, V domains shown)
VH: QVQLVQSGVEVKKPGASVKVSCKTSGYPFSTYGVSWVRQAPGQGLEWVGWISGYTGITDYAQKSQGRVTLTTDASTATAFLELRSLRPDDTATYFCARDKVQGRVEAGSGGRHDYWGQGTLVIVSS
VL: EVVLTQSPGTLTLPPGDRATLSCRASHSVGSTYIAWFQQKSGQAPRRLIYGASNRATDIPDRFSGSGSGTDFTLTIRRLEPEDSAVYYCQQFSVSPWTFGQGTRVEIKR
B2: CT166 (antibody, V domains shown)
VH: QVQLVQSGAEVKKPGASVKVSCKTSGYSFSTYGVSWVRQAPGQGLEWVGWISGYTGITDYAQKFQGRVTLTTDATTATAFLELRSLRPDDTATYFCARDKVQGRVEVGSGGRHDYWGQGTLVIVSS
VL: EVVLTQSPGTLALPPGERATLSCRASHSIGSTYIAWYQQKSGQAPRRLIYGASNRASDIPDRFSGSGSGTDFTLTIRRLEPEDSAVYYCQQFSVSPWTFGQGTRVEIKR
B3: CT120 (antibody, V domains shown)
VH: QVQLVQSGAEVKMPGSSVKVSCKTSGVFFSSHAISWVRQAPGQGLEWMGGISPMFGTTHYAQKFQGRVTITADQSTTTAYMELTSLTSEDTAVYYCARDGAGSYYPLNWFDPWGQGTLVTVSS
VL: EIVLTQSPATLSLSPGERATLSCRASENIWNNLAWYQQKPGQAPRLLISGASTGATGVPSRFRGSGSRTEFTLTISSLQSEDFAIYFCQQYNSWPRTFGPGTKVEIKR

Legend:
[1] = target: HA of A/Brisbane/10/07 (H3N2) virus (Influenza A virus A/Brisbane/10/07 (H3N2)); assay: cell-based or functional assay
[2] = target: HA of A/Hong Kong/68 (H3N2) virus (Influenza A virus A/Hong Kong/68 (H3N2)); assay: cell-based or functional assay
[3] = target: HA of A/Wisconsin/67/05 (H3N2) virus (Influenza A virus A/Wisconsin/67/05 (H3N2)); assay: cell-based or functional assay
[4] = target: purified recombinant HA protein of H1N1 (A/Texas/05/09) (Influenza A virus A/Texas/05/09 (H1N1))
[5] = target: purified recombinant HA protein of H1N1 (A/Ohio/07/09) (Influenza A virus A/Ohio/07/09 (H1N1))
[6] = target: purified recombinant HA protein of H5N1 (A/Vietnam/1203/04) (Influenza A virus A/Vietnam/1203/04 (H5N1))
[7] = target: purified recombinant HA protein of H1N1 (A/Ohio/07/09) (Influenza A virus A/Ohio/07/09 (H1N1)); assay: SPR, Biacore T200, HA captured via anti-6x his tag antibody, 25 C
[8] = target: purified recombinant HA protein of H1N1 (A/Texas/05/09) (Influenza A virus A/Texas/05/09 (H1N1)); assay: as above
[9] = target: purified recombinant HA protein of H5N1 (A/Vietnam/1203/04) (Influenza A virus A/Vietnam/1203/04 (H5N1)); assay: as above

Binder	MN test: lowest antibody concentration at which no virus antigen was detected [1]	MN test: lowest antibody concentration at which no virus antigen was detected [2]	MN test: lowest antibody concentration at which no virus antigen was detected [3]	Kd [4]	Kd [5]	Kd [6]	Kd [7]	koff [7]	kon [7]	Kd [8]	koff [8]	kon [8]	Kd [9]	koff [9]
B1	0.625 µg/mL	1.25 µg/mL	2.5 µg/mL											
B2	1.25 µg/mL	2.5 µg/mL	5 µg/mL											
B3				1.76 nM	2 nM	3.97 nM	1.76 nM and 2.24 nM	0.000663 s⁻¹ and 0.000789 s⁻¹	376000 M⁻¹ s⁻¹ and 352000 M⁻¹ s⁻¹	1.97 nM and 1.55 nM	0.00119 s⁻¹ and 0.00098 s⁻¹	606000 M⁻¹ s⁻¹ and 632000 M⁻¹ s⁻¹	3.74 nM and 4.2 nM	3.88 s⁻¹
